Source: PMC11127761

How the values were obtained:
Assay in all cases: electrochemical aptasensor (IPA 500 Hz, flow cell)
Conditions in all cases: 1-1000 pg/mL; NPY signal about 10x higher; 5' thiol C6 (disulfide reduced), 3' amino linker; aCSF pH 7.4 (composition by citation); SWV -0.4 to 0.0 V, 30 Hz; IPA 500 Hz in flow cell; assay temperature not stated
[1] = target: T1, Pancreatic polypeptide (PP) (UniProt P01298)
T1 sequence: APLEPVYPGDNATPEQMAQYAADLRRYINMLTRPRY

Peptide YY (PYY) = Peptide YY (PYY) (UniProt P10082)
Sequence of Peptide YY (PYY) (P10082 29-64): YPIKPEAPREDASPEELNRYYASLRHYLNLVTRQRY

Somatostatin (SOM) = target: T2, Somatostatin (SOM) (UniProt P61278)
T2 sequence: AGCKNFFWKTFTSC

Measured: binding signal (fraction of NPY signal)

AGCAGCACAGAGGTCAGATGCAAACCACAGCCTGAGTGGTTAGCGTATGTCATTTACGGACCTATGCGTGCTACCGTGAA [Aptamer 4.31]
0.1: all assays above
